Test results from US10175244B2, “Dominant negative HSP110 mutant and its use in prognosing and treating cancers” (INSERM (INSTITUT NATIONAL DE LA SANTÉ ET DE LA RECHERCHE …, priority 2011, dated 2019).

B1: HSP110delE9: truncated HSP110 protein (SEQ ID NO: 1) from mRNA lacking exon 9, devoid of the substrate binding domain (protein, listed as Homo sapiens)
chain: MSVVGLDVGSQSCYIAVARAGGIETIANEFSDRCTPSVISFGSKNRTIGVAAKNQQITHANNTVSNFKRFHGRAFNDPFIQKEKENLSYDLVPLKNGGVGIKVMYMGEEHLFSVEQITAMLLTKLKETAENSLKKPVTDCVISVPSFFTDAERRSVLDAAQIVGLNCLRLMNDMTAVALNYGIYKQDLPSLDEKPRIVVFVDMGHSAFQVSACAFNKGKLKVLGTAFDPFLGGKNFDEKLVEHFCAEFKTKYKLDAKSKIRALLRLYQECEKLKKLMSSNSTDLPLNIECFMNDKDVSGKMNRSQFEELCAELLQKIEVPLYSLLEQTHLKVEDVSAVEIVGGATRIPAVKERIAKFFGKDISTTLNADEAVARGCALQC
B2: HSP110wt: wild-type heat-shock 110 kDa protein, SEQ ID NO: 2 (protein, listed as Homo sapiens)
chain: MSVVGLDVGSQSCYIAVARAGGIETIANEFSDRCTPSVISFGSKNRTIGVAAKNQQITHANNTVSNFKRFHGRAFNDPFIQKEKENLSYDLVPLKNGGVGIKVMYMGEEHLFSVEQITAMLLTKLKETAENSLKKPVTDCVISVPSFFTDAERRSVLDAAQIVGLNCLRLMNDMTAVALNYGIYKQDLPSLDEKPRIVVFVDMGHSAFQVSACAFNKGKLKVLGTAFDPFLGGKNFDEKLVEHFCAEFKTKYKLDAKSKIRALLRLYQECEKLKKLMSSNSTDLPLNIECFMNDKDVSGKMNRSQFEELCAELLQKIEVPLYSLLEQTHLKVEDVSAVEIVGGATRIPAVKERIAKFFGKDISTTLNADEAVARGCALQCAILSPAFKVREFSVTDAVPFPISLIWNHDSEDTEGVHEVFSRNHAAPFSKVLTFLRRGPFELEAFYSDPQGVPYPEAKIGRFVVQNVSAQKDGEKSRVKVKVRVNTHGIFTISTASMVEKVPTEENEMSSEADMECLNQRPPENPDTDKNVQQDNSEAGTQPQVQTDAQQTSQSPPSPELTSEENKIPDADKANEKKVDQPPEAKKPKIKVVNVELPIEANLVWQLGKDLLNMYIETEGKMIMQDKLEKERNDAKNAVEEYVYEFRDKLCGPYEKFICEQDHQNFLRLLTETEDWLYEEGEDQAKQAYVDKLEELMKIGTPVKVRFQEAEERPKMFEELGQRLQHYAKIAADFRNKDEKYNHIDESEMKKVEKSVNEVMEWMNNVMNAQAKKSLDQDPVVRAQEIKTKIKELNNTCEPVVTQPKPKIESPKLERTPNGPNIDKKEEDLEDKNNFGAEPPHQNGECYPNEKNSVNMDLD
B3: TRAIL: cell death factor, Tumor necrosis factor-related-apoptosis-inducing ligand, recombinant (protein, UniProt P50591 1-281, looked up)
Tumor necrosis factor ligand …: MAMMEVQGGPSLGQTCVLIVIFTVLLQSLCVAVTYVYFTNELKQMQDKYSKSGIACFLKEDDSYWDPNDEESMNSPCWQVKWQLRQLVRKMILRTSEETISTVQEKQQNISPLVRERGPQRVAAHITGTRGRSNTLSSPNSKNEKALGRKINSWESSRSGHSFLSNLHLRNGELVIHEKGFYYIYSQTYFRFQEEIKENTKNDKQMVQYIYKYTSYPDPILLMKSARNSCWSKDAEYGLYSIYQGGIFELKENDRIFVSVTNEHLIDMDHEASFFGAFLVG
modifications: His tag
notes: cell death factor, Tumor necrosis factor-related-apoptosis-inducing ligand, recombinant

Experiments:
HSP70 = biological target: T1, HSP70 (Homo sapiens, UniProt P0DMV8); test: Immunoprecipitation and Western-blotting, association with HSP70; type: binding; conditions: HCT116 cells, immunoprecipitation
T1 construct: HA; expressed in transfected cells; host or cells: HCT116
T1 sequence (P0DMV8 whole entry): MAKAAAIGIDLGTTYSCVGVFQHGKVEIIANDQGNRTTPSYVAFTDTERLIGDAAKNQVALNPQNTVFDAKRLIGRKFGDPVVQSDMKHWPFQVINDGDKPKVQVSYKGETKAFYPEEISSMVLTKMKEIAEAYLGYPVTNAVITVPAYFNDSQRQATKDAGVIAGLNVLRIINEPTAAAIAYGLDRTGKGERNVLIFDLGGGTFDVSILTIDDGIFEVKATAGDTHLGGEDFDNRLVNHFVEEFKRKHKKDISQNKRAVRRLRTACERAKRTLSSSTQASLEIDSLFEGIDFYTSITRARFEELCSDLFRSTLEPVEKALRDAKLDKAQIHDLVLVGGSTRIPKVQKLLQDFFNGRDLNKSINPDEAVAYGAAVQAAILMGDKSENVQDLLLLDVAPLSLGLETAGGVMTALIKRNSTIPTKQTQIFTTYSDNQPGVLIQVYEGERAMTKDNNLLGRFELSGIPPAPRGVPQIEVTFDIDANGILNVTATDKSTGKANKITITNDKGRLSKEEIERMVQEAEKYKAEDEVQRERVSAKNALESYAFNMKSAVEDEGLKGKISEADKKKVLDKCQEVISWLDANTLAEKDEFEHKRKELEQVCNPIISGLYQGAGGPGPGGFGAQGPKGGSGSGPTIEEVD
Description: (§1) Transfected cells were first lysed in lysis buffer (50 mM Hepes (pH 7.6), 150 mM NaCl, 5 mM EDTA and 0.1% NP40) followed by immunoprecipitation using GFP-tag antibody. Immunoprecipitates were separated in a 10% SDS-polyacrylamide gel and then transferred to PVDF membranes using a wet transfer apparatus (BioRad, Hercules, Califomia, USA). Membranes were first probed ovemight using primary antibodies: HA-tag antibody was from Covance (Eurogentec, Angers, France), 14-3-3 from Santa-Cruz (TebuBio, Le Perray en Yvelines, France) and GFP-tag antibody from Millipore (Molsheim, France).
(§2) The skipping of HSP110 exon 9 is frameshift and therefore generates a premature terminaison codon in exon 10 of the HSP110delE9 mRNA. HSP110delE9 is a truncated protein that contains the N-terminal ATP binding domain but is devoid of the substrate binding domain (FIG. 3). We performed several functional assays to better understand the role of increased expression of HSP110delE9 in MSI CRC cell lines. Chaperone activity was first studied using a protein thermolability assay that measures the in vitro ability of HSP110 to block protein aggregation induced by a heat shock using Murine Embryonic Fibroblasts (MEF).

[1] = system: MSI colon tumor cell lines; test: Apoptosis on re-expression of HSP110delE9 (NMD experiments); type: cell-based; conditions: data not shown
Text: The HSP110delE9 transcript contains a premature stop codon (PTC). Consequently, it is partially degraded by the NMD system in the tumor cells. […] Synthesis of chemical or biological compounds mimicking the HSP110delE9 activity in tumor cells, in particular mimicking its anti-apoptotic effect may have a major therapeutical interest in the treatment of CRCs. In the same way, the use of compounds susceptible to promote the HSP110delE9 expression in the tumor cells would be of great interest. […] Different pharmacological inhibitors of NMD are now available. They can be used to reproduce these experiments, both in vitro in different cell models and in animal models (nude mice xenografted with MSI CRC in first-line).

HSP110wt = biological target: T2, HSP110wt (Homo sapiens, UniProt Q92598); test: Immunoprecipitation and Western-blotting, association with HSP110wt; type: binding; conditions: HCT116 cells, immunoprecipitation
T2 construct: host or cells: HCT116
Description: FIG. 10 depicts the analysis of HSP110delE9 to wild-type HSP110. Cell lysates from HCT116 transfected with GFP-tagged HSP110 and/or HSP110delE9 were subjected to immunoprecipitation using HSP110 that recognizes the C-terminus of HSP110. After migration, membranes were immunoblotted with GFP antibody. Inputs: protein level in total cell lysates.
as §1
as §2, with “Chaperone activity was first studied using a protein thermolability assay that measures the in vitro ability of HSP110 to block protein aggregation induced by a heat shock using Murine Embryonic Fibroblasts (MEF).” left out

[2] = system: MSI (HCT116, LoVo) and MSS (SW480) CRC cell lines; test: Cell death analysis, sensitivity of transfected CRC cell lines to anticancer agents; type: cell-based, human
Description: FIG. 13 depicts the pro-apoptotic effect of HSP110delE9 on tumor cells treated with a chemotherapeutic agent. HCT116 (MSI) or SW480 (MSS) cells were transfected with HSP110wt (1.5 μg) and co-transfected with two different doses (0.5 and 1 μg) of either GFP-empty vector or HSP110delE9. After treatment with oxaliplatin (Oxa, 40 μM, 48 h), apoptosis was assessed by FACS analysis. *P<0.05.
(§3) Adherent cells were plated onto 12-well culture plates (1.5×10^5 cells/well) in complete medium. When indicated, cells were treated with TRAIL (150 ng/ml or 500 ng/ml) for 4 hours and cell death was measured by Hoechst 33342 staining (Sigma-Aldrich). Following treatment for 48 h with oxaliplatin (OxaPt, 20 and 40 μM), apoptotic cells were detected by Apo2.7 staining. Briefly, cells were harvested, washed in PBS and permeabilized with digitonin (100 mg/ml, 10 min at 4° C.). Cells were incubated with anti-Apo2.7 antibody and apoptotic cells were analyzed by flow cytometry using a LSR2 flow cytometer (Becton Dickinson, Franklin Lakes, N.J.).
(§4) A number of studies have previously described the anti-apoptotic role of HSP110. We therefore investigated the effect on apoptosis of the HSP110 truncation due to exon 9 skipping. HCT116 cells were transfected with HSP110wt or HSP110delE9 and apoptosis was triggered using the cell death factor, TRAIL (Tumor necrosis factor-related-apoptosis-inducing ligand).

HSP27 = biological target: T3, HSP27 (Homo sapiens, UniProt P04792); test: Immunoprecipitation and Western-blotting, association with HSP27; type: binding; conditions: HCT116 cells, immunoprecipitation
T3 construct: HA; expressed in transfected cells; host or cells: HCT116
T3 sequence (P04792 whole entry): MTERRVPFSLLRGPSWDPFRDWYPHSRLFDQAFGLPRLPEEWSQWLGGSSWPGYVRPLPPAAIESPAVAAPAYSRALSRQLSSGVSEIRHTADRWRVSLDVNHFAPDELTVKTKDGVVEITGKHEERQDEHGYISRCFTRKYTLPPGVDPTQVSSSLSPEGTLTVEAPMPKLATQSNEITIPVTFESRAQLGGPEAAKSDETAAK
Description: as §1, §2

[3] = system: protein aggregation induced by a heat shock; test: HSP110 chaperone activity, protein thermolability assay; type: biochemical, mouse; conditions: for anti-aggregation chaperone activity: protein extracts of transfected MEF heated at 55° C. for 1 h
Description: FIG. 9 depicts the effect of HSP110delE9 expression on protein aggregation. Protein extracts from MEF HSF1^+/+ cells transfected with HSP70, HSP110 and/or HSP110delE9 were heated at 55° C. for 1 h. The ratio between the initial amount of soluble protein before and after heat shock allowed to the quantification of protein aggregation. Each bar is the mean value of 4 different experiments. *P<0.05.
HSP110 chaperone activity was evaluated using a protein thermolability assay. Total protein (2 mg/mL) from HSF1^−/− MEFs that had been transfected with HSP70 (positive control), HSP27 (negative control), HSP110 or Mutant HSP110 (Dc Assay Kits, Bio-Rad, France) was heated at 55° C. for 1 hour. After centrifugation to eliminate aggregated proteins, the remaining native proteins in the supernatant were quantified. The ratio between the initial amount of soluble protein and that obtained after heating allowed for the quantification of protein aggregation.
as §2

HCT116 cells = test: Cell death analysis, TRAIL-induced apoptosis in transfected cells; type: cell-based, human; conditions: for protective (anti-apoptotic) effect against TRAIL-induced apoptosis: transfected HCT116 cells
Description: FIG. 11 depicts the effect of HSP110delE9 on apoptosis. HCT116 cells transfected with GFP-tagged HSP110, HSP110delE9 or an empty vector (GFP) were treated with recombinant TRAIL ligand (5 h) at the indicated doses. Apoptosis was measured by FACS analysis of caspase 3 activity.
FIG. 12 depicts the effect of increasing dose of HSP110delE9 on apoptosis. HCT116 cells transfected with GFP-tagged HSP110 and increased doses of HSP110delE9 or an empty vector (GFP) were treated with recombinant TRAIL ligand (60 ng/ml, 5 h) and the percentage of apoptosis was determined by DAPI staining (chromatin condensation).
as §3, §4

HSP90 = test: Immunoprecipitation and Western-blotting, association with HSP90; type: binding; conditions: HCT116 cells, immunoprecipitation
Description: as §1, §2

[4] = system: denatured protein substrates; conditions: compared to HSC70 and HSP70; cited from earlier work

| Molecule | association with HSP70 (HSP70) | apoptosis on re-expression [1] | association with HSP110wt (HSP110wt) | sensitization of colon cancer cells to chemotherapeutic agents ([2]; 5-fluorouracil and oxaliplatin, in vitro) | sensitivity of CRC cell lines to oxaliplatin ([2]; over-expression in HCT116, LoVo, SW480) | association with HSP27 (HSP27) | effect on anti-aggregation activity of HSP110wt ([3]; HSP110delE9 added at the same time as HSP110wt) | anti-aggregation chaperone activity [3] | effect on anti-apoptotic function of HSP110wt (HCT116 cells; HCT116 co-transfected with HSP110wt and increasing doses of HSP110delE9, TRAIL) | protective (anti-apoptotic) effect against TRAIL-induced apoptosis (HCT116 cells) | association with HSP90 (HSP90) | efficiency at binding and stabilizing denatured protein substrates [4] | induction of apoptosis (HCT116 cells; HCT116 cells treated with TRAIL) |
| --- | --- | --- | --- | --- | --- | --- | --- | --- | --- | --- | --- | --- | --- |
| B1 | lost the ability to associate with HSP70 and HSP27 | causes apoptosis of MSI colon tumor cell lines | associated strongly with HSP110wt | caused the sensitization of colon cancer cells | increased their sensitivity to anticancer agents such as oxaliplatin | lost the ability to associate with HSP70 and HSP27 | anti-aggregation activity of HSP110wt was abrogated | lost this chaperone activity | able to block its anti-apoptotic function in a dose-dependent manner | lacked the protective properties of HSP110wt |  |  |  |
| B2 | efficiently interacted with HSP70 |  |  |  |  | efficiently interacted |  | anti-aggregation activity comparable to other HSPs such as HSP70 |  | exerted a protective effect | not with HSP90 | approximately four-fold more efficient |  |
| B3 |  |  |  |  |  |  |  |  |  |  |  |  | induced dose dependent apoptosis |
